Here are results for four molecules from paper doi:10.1101/2025.02.13.638205, “Cryo-EM structure of endogenous Plasmodium falciparum Pfs230 and Pfs48/45 fertilization complex” (bioRxiv, 2025).

For one experiment, the target named is recombinant Pfs230 D1D2 (Plasmodium falciparum 3D7/NF54, UniProt P68874). Description: BLI. As to conditions: both partners purified.
For experiment [1], the target named is recombinant Pfs230 D5D6 (T1281-G1549) (Plasmodium falciparum 3D7, UniProt P68874). Description: BLI. As to conditions: both partners purified.
Chain of recombinant Pfs230 D5D6 (T1281-G1549) (P68874 1281-1549): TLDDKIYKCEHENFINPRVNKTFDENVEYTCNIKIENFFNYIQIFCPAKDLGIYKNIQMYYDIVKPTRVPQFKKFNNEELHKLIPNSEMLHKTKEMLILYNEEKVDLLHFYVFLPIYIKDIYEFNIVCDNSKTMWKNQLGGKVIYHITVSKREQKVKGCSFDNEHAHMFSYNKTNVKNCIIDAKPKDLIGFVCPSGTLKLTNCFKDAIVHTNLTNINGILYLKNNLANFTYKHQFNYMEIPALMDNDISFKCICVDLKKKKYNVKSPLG
Experiment [2] addresses recombinant Pfs230 D11D12 (D2446-T2818) (Plasmodium falciparum 3D7, UniProt P68874). In words: BLI. As to conditions: both partners purified.
The target in experiment [3] is Pfs230, endogenous, in fixed NF54/iGP2 stage V gametocytes (Plasmodium falciparum (endogenous in …, UniProt P68874)). Description: immunostaining of cells or tissue. As to conditions: one partner purified.
Chain of Pfs230, endogenous, in fixed NF54/iGP2 stage V gametocytes (Plasmodium falciparum (P68874 21-3135): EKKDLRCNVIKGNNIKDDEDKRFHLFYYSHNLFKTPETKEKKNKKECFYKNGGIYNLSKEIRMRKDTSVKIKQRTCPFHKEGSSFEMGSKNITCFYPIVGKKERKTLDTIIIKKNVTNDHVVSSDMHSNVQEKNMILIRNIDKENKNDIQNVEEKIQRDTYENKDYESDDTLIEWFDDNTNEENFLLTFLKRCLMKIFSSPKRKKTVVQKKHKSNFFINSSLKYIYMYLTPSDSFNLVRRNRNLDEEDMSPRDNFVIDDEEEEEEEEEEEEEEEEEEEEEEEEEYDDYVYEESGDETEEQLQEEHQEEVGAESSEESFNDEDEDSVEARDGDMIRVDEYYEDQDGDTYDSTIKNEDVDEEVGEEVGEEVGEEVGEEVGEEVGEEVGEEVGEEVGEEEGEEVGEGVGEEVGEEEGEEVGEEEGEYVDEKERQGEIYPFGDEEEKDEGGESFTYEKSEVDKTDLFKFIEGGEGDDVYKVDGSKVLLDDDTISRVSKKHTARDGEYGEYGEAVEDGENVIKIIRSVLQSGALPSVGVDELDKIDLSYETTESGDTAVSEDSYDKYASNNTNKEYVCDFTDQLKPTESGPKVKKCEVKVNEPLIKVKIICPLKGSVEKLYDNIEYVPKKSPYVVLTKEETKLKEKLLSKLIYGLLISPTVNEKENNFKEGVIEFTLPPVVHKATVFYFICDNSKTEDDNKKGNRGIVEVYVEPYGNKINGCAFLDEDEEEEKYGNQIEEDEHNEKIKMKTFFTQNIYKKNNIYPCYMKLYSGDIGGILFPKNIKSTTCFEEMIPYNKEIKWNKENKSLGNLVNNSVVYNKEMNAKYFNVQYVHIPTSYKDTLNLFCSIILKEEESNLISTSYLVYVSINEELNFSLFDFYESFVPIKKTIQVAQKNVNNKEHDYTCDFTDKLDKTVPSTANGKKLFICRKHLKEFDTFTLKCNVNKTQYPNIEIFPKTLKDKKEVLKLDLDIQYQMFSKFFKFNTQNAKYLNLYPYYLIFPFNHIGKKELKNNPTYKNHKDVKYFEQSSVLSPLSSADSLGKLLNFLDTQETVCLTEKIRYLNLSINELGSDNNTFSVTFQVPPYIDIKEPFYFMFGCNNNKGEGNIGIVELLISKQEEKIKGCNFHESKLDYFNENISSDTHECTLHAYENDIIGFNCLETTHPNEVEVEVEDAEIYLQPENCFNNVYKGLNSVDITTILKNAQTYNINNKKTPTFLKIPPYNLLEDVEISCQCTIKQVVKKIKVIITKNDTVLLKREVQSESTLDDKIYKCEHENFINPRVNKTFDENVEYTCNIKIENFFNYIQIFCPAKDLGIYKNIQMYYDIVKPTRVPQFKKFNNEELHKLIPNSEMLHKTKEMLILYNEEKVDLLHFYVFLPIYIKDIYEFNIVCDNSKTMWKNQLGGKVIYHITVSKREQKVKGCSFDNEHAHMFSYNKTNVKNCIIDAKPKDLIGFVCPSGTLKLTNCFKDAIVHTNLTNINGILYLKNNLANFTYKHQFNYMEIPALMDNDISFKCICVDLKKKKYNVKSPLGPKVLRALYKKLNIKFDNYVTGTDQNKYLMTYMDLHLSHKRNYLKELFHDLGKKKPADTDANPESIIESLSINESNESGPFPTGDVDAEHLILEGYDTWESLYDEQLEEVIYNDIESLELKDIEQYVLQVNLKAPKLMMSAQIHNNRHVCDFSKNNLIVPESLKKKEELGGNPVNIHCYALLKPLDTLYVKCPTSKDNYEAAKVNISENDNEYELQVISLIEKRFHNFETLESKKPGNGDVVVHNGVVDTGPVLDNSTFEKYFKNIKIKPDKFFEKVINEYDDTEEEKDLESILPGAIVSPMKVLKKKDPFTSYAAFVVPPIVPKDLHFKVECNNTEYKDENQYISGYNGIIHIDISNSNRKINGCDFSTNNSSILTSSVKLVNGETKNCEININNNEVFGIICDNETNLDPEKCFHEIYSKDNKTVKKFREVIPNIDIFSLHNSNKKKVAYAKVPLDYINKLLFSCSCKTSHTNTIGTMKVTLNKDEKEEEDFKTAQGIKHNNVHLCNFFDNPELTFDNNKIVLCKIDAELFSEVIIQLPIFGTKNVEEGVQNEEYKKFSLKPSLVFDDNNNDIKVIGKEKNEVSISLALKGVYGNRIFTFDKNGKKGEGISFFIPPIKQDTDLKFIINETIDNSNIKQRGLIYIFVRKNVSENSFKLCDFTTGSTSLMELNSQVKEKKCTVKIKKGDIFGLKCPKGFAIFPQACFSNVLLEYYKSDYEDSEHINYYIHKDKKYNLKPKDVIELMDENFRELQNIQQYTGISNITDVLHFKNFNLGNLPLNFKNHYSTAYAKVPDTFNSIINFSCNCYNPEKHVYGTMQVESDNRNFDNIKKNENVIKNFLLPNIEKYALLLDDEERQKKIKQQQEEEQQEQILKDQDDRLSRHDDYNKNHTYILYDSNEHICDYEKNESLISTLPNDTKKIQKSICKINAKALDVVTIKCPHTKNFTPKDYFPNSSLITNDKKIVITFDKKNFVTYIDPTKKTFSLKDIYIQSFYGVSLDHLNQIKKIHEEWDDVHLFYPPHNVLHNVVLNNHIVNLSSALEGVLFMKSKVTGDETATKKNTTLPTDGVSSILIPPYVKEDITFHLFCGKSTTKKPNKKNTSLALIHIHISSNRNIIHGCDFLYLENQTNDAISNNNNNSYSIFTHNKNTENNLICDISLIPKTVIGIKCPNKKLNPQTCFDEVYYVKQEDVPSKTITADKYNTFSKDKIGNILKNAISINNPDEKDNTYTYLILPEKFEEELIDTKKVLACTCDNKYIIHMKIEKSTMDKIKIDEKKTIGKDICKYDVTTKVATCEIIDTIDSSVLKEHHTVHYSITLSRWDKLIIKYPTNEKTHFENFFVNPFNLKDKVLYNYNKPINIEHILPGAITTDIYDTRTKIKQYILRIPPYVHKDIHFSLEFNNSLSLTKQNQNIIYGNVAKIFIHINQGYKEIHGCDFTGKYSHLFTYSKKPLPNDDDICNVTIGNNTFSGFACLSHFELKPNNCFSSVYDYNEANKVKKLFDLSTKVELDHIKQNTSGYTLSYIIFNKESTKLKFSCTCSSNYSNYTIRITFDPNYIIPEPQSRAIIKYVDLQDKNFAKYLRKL
For experiment [4], the target named is T1, Pfs48/45, endogenous, from P. falciparum stage V gametocytes (Plasmodium falciparum NF54 (NF54/iGP2 …)).
T1 construct: Pfs48/45 of Plasmodium falciparum, three 6-cysteine domains (D1-D3), migrates at about 50 kDa; residues 28-428 fitted in the cryo-EM model; also called P48/45; source: endogenous, P. falciparum NF54/iGP2 Pfs230FL stage V gametocytes; co-purified with Pfs230 (StrepTactin XT, SEC) and in parasite lysate
T1 chain: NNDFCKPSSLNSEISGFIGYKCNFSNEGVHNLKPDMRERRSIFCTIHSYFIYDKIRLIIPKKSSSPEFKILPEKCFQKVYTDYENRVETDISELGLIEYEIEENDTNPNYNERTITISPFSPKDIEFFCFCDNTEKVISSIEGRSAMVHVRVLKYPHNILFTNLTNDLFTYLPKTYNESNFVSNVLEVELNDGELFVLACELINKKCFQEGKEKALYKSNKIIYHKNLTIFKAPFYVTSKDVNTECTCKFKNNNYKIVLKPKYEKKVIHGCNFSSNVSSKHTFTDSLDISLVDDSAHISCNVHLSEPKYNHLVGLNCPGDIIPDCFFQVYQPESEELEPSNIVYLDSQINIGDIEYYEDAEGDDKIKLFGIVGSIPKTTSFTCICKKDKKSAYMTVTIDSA
Description: pull-down. As to conditions: one partner purified.

Chain of recombinant Pfs230 D11D12 (D2446-T2818) (P68874 2446-2818, one chain of several): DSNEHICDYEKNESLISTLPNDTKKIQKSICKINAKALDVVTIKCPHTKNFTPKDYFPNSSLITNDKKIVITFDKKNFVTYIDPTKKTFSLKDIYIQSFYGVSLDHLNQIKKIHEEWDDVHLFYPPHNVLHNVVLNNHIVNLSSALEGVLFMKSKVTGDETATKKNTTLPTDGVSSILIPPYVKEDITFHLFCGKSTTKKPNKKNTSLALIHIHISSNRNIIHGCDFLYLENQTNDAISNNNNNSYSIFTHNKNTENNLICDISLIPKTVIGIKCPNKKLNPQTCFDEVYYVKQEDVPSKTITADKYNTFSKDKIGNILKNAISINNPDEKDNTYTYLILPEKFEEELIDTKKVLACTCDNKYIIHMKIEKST

B1: nanobody W2810 (VHH)
VHH: QVQLQESGGGLVQAGGSLRLSCAASGRTFSSYAMGWFHQAPGKEREFVASISWSGGSIRYADSVKGRFTVSRDNAKNTAYLQMNSLKPEDTGVYYCAAGPYSSDYGGFGSWGQGTQVTVSS
In the case of B1, the binding result in the experiment with recombinant Pfs230 D1D2 is reported as “no binding (tested: 100 nM)”; in experiment [1], “no binding (tested: 100 nM)”; in experiment [2] it was “no binding (tested: 100 nM)”; in experiment [3] it was “binds”.

B2: anti-Pfs48/45 monoclonal antibody TB31F (antibody, V domains shown)
VH: EVQLVQSGGGLVQPGGSLRLSCAASGFTFNNYWMSWVRQAPGKGLEWVSSISNIGGTIYYPDSVKGRFTISRDNSKNTLYLQMNSLRAEDTAVYYCTRDLRMSDYFDYWGQGTMVTVSS
VL: NFMLTQPHSVSESPGKTVTISCTRSTGNIGSNYVSWYQQRPGSSPTTVIYRDDQRPSGVPDRFSGSIDRSSNSASLTISGLKTEDEADYYCHSYSTGMYIFGGGTKLTVL
B2: the binding result in experiment [4] is listed as “binds”.

B3: nanobody W2809 (VHH)
VHH: QVQLQESGGGLVQAGGSLRLSCAASEHTFRDYAMGWFRQAPGKEREFVAAISWSGSIKYYADSVKGRFTISRDNAKRTQYLQMSSLKPEDTAVYYCAARWPGGGMWYEPPYDYWGQGTQVTVSS
B3: the binding result (with recombinant Pfs230 D1D2; in experiment [1]; in experiment [2]) was “no binding” throughout.

B4: nanobody W2812 (VHH)
VHH: QVQLQESGGGLVQPGGSLRLSCAASGRTFSSYMMAWFRQSQGNERELVAGLTRSGVSAYYADSVKGRFTISRDNAKNTVYLQMNSLKPKDTAVYYCAAASTTYINHIYTNPSNYPHWGPGTQVTVSS
B4: the binding result was “no binding (tested: 100 nM)” with recombinant Pfs230 D1D2, “no binding (tested: 100 nM)” in experiment [1], “no binding (tested: 100 nM)” in experiment [2] and “binds” in experiment [3].
